According to the supplement of paper PMC11865577:

What was measured:
Assay in all cases: pull-down binding Z-score (relative to library population); higher = stronger binding
Conditions in all cases: RNA library: Library-2
[1] = system: TO-3-N3 (biotin conjugate)
Method in brief: (§1)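 A heat-folded, dye-end-labelled (Cy5 or Cy3) RNA library (1 μg, phosphate/NaCl/KCl buffer) was exposed for 60 min at 25 °C to streptavidin beads holding 100 pmol of biotin-conjugated small molecule. RNA retained on the beads was eluted in hot SDS and hybridised to a DNA barcode microarray for 20 h at 55.5 °C. Binding scores were Z-scores against the library mean and standard deviation, calculated after subtracting beads alone and taking trimmed means of replicate probes.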

[2] = system: TO-3-N3-2 (biotin conjugate)
Method in brief: as §1

TO-N3 (biotin conjugate) = system: TO-N3 (biotin conjugate)
Method in brief: as §1

[3] = system: TO-N3-2 (biotin conjugate)
Method in brief: as §1

GCAAGUUGAAUCUGAUGAUUACAUAGCUACUAAUGGACCACUUAAAGUGGGUGGUAGUUGUGUUUUAAGCGGACACAAUCUUGC
pull-down binding Z-score [1]: -0.696
pull-down binding Z-score [2]: -0.436
pull-down binding Z-score (TO-N3 (biotin conjugate)): -0.805
pull-down binding Z-score [3]: -0.558

GCACACUAGAACCAGAAUAUUUCAAUUCAGUGUGU
pull-down binding Z-score [1]: -0.957
pull-down binding Z-score [2]: -0.413
pull-down binding Z-score (TO-N3 (biotin conjugate)): -1.2
pull-down binding Z-score [3]: -1.18

GCACAUAUAUCUACUAUUGGUGUUUGUUCUAUGACUGACAUAGCCAAGAAACCAACUGAAACGAUUUGUGC
pull-down binding Z-score [1]: -0.793
pull-down binding Z-score [2]: -0.32
pull-down binding Z-score (TO-N3 (biotin conjugate)): -0.457
pull-down binding Z-score [3]: 0.00798

GCACCAUUAUUAUCAGCUGGUAUUUUUGGUGC
pull-down binding Z-score [1]: -0.619
pull-down binding Z-score [2]: -0.502
pull-down binding Z-score (TO-N3 (biotin conjugate)): -0.921
pull-down binding Z-score [3]: -1.18

GCACCUCAUGGUGU
pull-down binding Z-score [1]: 0.707
pull-down binding Z-score [2]: -0.649
pull-down binding Z-score (TO-N3 (biotin conjugate)): 0.66
pull-down binding Z-score [3]: -0.856

GCACGUAGUGUAGCUAGUCAAUCCAUCAUUGCCUACACUAUGUC
pull-down binding Z-score [1]: 0.288
pull-down binding Z-score [2]: 0.0633
pull-down binding Z-score (TO-N3 (biotin conjugate)): 0.227
pull-down binding Z-score [3]: 0.486

GCACUACAGCUAAGGCUAUGGAGC [IAV_invivo_M1_M2_7_Motif_13+IAV_invivo_M1_M2_7_Motif_13]
pull-down binding Z-score [1]: -0.491
pull-down binding Z-score [2]: -0.311
pull-down binding Z-score (TO-N3 (biotin conjugate)): -0.314
pull-down binding Z-score [3]: 0.116

GCACUAUUGCCUUUGGAGGCUGUGUGU [SHAPE_invivo_SARS-CoV-2_Motif_29]
pull-down binding Z-score [1]: 0.554
pull-down binding Z-score [2]: -0.236
pull-down binding Z-score (TO-N3 (biotin conjugate)): 0.415
pull-down binding Z-score [3]: -0.0377

GCACUGACUUGCUUUAGCACUCAAUUUGCUUUUGCUUGUCCUGACGGCGUAAAACACGUCUAUCAGUUACGUGC
pull-down binding Z-score [1]: 0.239
pull-down binding Z-score [2]: -0.234
pull-down binding Z-score (TO-N3 (biotin conjugate)): 0.281
pull-down binding Z-score [3]: -0.056

GCAGACGGGCGAUUUUGUUAAAGCCACUUGC
pull-down binding Z-score [1]: 0.648
pull-down binding Z-score [2]: 0.604
pull-down binding Z-score (TO-N3 (biotin conjugate)): 0.889
pull-down binding Z-score [3]: 1.57

GCAGACUUCAAAGUUUGC
pull-down binding Z-score [1]: 0.23
pull-down binding Z-score [2]: -0.0803
pull-down binding Z-score (TO-N3 (biotin conjugate)): -0.139
pull-down binding Z-score [3]: -1.04

GCAGAGACAGAAGAAACAGCAAACUGUGACUCUUCUUCCUGC
pull-down binding Z-score [1]: -0.211
pull-down binding Z-score [2]: -0.128
pull-down binding Z-score (TO-N3 (biotin conjugate)): -0.156
pull-down binding Z-score [3]: 0.0897

GCAGCAAUAUGC [IAV_invivo_PA_3_Motif_2+IAV_invivo_PA_3_Motif_2]
pull-down binding Z-score [1]: 0.588
pull-down binding Z-score [2]: -0.292
pull-down binding Z-score (TO-N3 (biotin conjugate)): 0.548
pull-down binding Z-score [3]: -0.111

GCAGCCAAACUAAUGGUUGU
pull-down binding Z-score [1]: 0.609
pull-down binding Z-score [2]: 0.228
pull-down binding Z-score (TO-N3 (biotin conjugate)): 0.574
pull-down binding Z-score [3]: 0.312

GCAGGAGCCUUAAAUAAGGCUACUAACAAUGC
pull-down binding Z-score [1]: 0.214
pull-down binding Z-score [2]: -0.0703
pull-down binding Z-score (TO-N3 (biotin conjugate)): 0.0366
pull-down binding Z-score [3]: -0.521

GCAGUAAGUCUGAUACUUACCUG [U1snRNP5ss-9]
pull-down binding Z-score [1]: 0.85
pull-down binding Z-score [2]: 0.129
pull-down binding Z-score (TO-N3 (biotin conjugate)): 0.947
pull-down binding Z-score [3]: 0.892

GCAGUAUAAUUAAUAACUAAUUACUGU [SARS-CoV-2-Conserved-Structured-36_Interval-120-237_Motif_1]
pull-down binding Z-score [1]: -0.577
pull-down binding Z-score [2]: -0.428
pull-down binding Z-score (TO-N3 (biotin conjugate)): -1.03
pull-down binding Z-score [3]: -1.31

GCAGUGGCUAACUAACAUCUUUGGCACUGU
pull-down binding Z-score [1]: -0.125
pull-down binding Z-score [2]: 0.0264
pull-down binding Z-score (TO-N3 (biotin conjugate)): -0.244
pull-down binding Z-score [3]: -0.175
